From patent US20250268994A1

Each substance was assayed against delta (India) variant S glycoprotein of SARS-CoV-2 (SARS-CoV-2) (UniProt P0DTC2) (assay: cell-based or functional assay).

Row | Substance | Preliminary Estimate of IC50 (nM), RVP neutralization
1 | hsACE2 H374N H378N (variant polypeptide encoded by SEQ ID NO: 6) (from UniProt Q9BYF1 18-740) (receptor) | 8.29 nM
2 | hsACE2 N90D R273A (variant polypeptide encoded by SEQ ID NO: 4) (from UniProt Q9BYF1 18-740) (receptor) | 2.74 nM
3 | hsACE2 N90D T92A (variant polypeptide encoded by SEQ ID NO: 5) (from UniProt Q9BYF1 18-740) (receptor) | 2.33 nM
